Consider eight proteins from US7118902.

The target of this series is bovine articular cartilage aggrecan, P13608.
Chain of bovine articular cartilage aggrecan, P13608 (P13608 17-2364): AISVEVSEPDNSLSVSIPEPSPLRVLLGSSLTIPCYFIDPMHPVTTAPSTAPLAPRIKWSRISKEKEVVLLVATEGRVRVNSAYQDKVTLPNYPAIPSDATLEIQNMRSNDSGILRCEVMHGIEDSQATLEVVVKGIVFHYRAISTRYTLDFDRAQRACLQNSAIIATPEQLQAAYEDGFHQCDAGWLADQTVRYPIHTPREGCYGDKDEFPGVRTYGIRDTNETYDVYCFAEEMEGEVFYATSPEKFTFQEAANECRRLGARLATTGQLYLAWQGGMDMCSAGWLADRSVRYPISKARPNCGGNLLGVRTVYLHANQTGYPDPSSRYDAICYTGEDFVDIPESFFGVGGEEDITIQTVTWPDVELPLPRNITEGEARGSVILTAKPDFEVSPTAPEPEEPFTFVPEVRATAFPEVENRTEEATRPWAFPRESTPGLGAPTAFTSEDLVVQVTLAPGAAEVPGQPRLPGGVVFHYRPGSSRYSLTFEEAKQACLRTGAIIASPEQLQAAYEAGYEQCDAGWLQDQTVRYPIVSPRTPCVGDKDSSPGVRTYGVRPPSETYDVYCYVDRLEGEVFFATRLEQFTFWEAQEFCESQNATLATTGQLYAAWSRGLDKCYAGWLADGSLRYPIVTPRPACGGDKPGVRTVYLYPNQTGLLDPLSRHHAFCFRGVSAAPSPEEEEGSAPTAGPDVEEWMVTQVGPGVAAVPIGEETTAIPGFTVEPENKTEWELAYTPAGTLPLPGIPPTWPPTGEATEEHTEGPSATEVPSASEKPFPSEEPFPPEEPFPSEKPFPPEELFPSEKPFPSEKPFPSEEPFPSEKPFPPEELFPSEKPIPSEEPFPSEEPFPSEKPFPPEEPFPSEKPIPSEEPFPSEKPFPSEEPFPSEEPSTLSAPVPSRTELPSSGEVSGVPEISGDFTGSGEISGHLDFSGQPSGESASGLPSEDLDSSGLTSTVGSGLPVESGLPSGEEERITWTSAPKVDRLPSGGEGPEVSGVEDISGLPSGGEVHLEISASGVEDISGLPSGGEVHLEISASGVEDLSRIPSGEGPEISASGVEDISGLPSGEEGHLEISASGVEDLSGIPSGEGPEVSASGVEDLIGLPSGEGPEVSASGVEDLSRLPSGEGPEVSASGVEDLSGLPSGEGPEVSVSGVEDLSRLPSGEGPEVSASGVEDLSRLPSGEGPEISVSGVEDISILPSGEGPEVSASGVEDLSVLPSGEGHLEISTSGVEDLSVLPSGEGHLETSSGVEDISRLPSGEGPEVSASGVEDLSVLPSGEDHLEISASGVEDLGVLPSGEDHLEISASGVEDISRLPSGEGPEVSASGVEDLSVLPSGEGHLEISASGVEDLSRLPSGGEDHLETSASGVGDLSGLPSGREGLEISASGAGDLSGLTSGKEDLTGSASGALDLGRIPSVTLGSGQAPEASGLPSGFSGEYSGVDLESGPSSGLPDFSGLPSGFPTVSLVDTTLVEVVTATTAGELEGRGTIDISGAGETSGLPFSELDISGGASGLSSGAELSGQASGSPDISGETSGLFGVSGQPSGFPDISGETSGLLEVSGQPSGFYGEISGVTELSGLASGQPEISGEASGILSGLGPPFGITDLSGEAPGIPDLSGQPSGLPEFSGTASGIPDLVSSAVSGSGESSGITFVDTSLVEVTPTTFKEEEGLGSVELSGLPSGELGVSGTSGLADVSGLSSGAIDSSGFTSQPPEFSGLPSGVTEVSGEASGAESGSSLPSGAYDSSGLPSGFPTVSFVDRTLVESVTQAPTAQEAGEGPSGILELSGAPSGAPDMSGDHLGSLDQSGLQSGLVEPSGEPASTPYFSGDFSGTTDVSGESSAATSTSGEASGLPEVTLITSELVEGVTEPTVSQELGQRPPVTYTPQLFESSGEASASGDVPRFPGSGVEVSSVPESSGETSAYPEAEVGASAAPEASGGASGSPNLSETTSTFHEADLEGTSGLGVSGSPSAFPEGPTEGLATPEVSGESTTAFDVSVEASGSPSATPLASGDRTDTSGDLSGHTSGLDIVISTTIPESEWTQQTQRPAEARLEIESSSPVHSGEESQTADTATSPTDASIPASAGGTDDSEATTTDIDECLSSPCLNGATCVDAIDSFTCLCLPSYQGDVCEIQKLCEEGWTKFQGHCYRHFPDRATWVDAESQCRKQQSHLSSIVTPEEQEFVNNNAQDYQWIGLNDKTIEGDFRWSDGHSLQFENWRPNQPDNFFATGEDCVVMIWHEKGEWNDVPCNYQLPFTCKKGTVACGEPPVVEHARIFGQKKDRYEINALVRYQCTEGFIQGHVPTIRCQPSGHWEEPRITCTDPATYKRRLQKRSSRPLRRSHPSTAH

B1: ADAMTS4(p53), auto-digested isoform of human ADAMTS4 (protein)
chain: FASLSRFVETLVVADDKMAAFHGAGLKRYLLTVMAAAAKAFKHPSIRNPVSLVVTRLVILGSGEEGPQVGPSAAQTLRSFCAWQRGLNTPEDSDPDHFDTAILFTRQDLCGVSTCDTLGMADVGTVCDPARSCAIVEDDGLQSAFTAAHELGHVFNMLHDNSKPCISLNGPLSTSRHVMAPVMAHVDPEEPWSPCSARFITDFLDNGYGHCLLDKPEAPLHLPVTFPGKDYDADRQCQLTFGPDSRHCPQLPPPCAALWCSGHLNGHAMCQTKHSPWADGTPCGPAQACMGGRCLHMDQLQDFNIPQAGGWGPWGPWGDCSRTCGGGVQFSSRDCTRPVPRNGGKYCEGRRTRFRSCNTEDCPTGSALTFREEQCAAYNHRTDLFKSFPGPMDWVPRYTGVAPQDQCKLTCQARALGYYYVLEPRVVDGTPCSPDSSSVCVQGRCIHAGCDRIIGSKKKFDKCMVCGGDGSGCSKQSGSFRK
For the protein B1, the “aggrecanase activity (Western blot with MAb BC-3 for the 374ARGXX neoepitope)” value was “both isoforms have aggrecanase activity”.

B2: mature protein of construct G (full-length ADAMTS4 active-site mutant E362Q with FLAG tag) (protein)
chain: FASLSRFVETLVVADDKMAAFHGAGLKRYLLTVMAAAAKAFKHPSIRNPVSLVVTRLVILGSGEEGPQVGPSAAQTLRSFCAWQRGLNTPEDSDPDHFDTAILFTRQDLCGVSTCDTLGMADVGTVCDPARSCAIVEDDGLQSAFTAAHQLGHVFNMLHDNSKPCISLNGPLSTSRHVMAPVMAHVDPEEPWSPCSARFITDFLDNGYGHCLLDKPEAPLHLPVTFPGKDYDADRQCQLTFGPDSRHCPQLPPPCAALWCSGHLNGHAMCQTKHSPWADGTPCGPAQACMGGRCLHMDQLQDFNIPQAGGWGPWGPWGDCSRTCGGGVQFSSRDCTRPVPRNGGKYCEGRRTRFRSCNTEDCPTGSALTFREEQCAAYNHRTDLFKSFPGPMDWVPRYTGVAPQDQCKLTCQARALGYYYVLEPRVVDGTPCSPDSSSVCVQGRCIHAGCDRIIGSKKKFDKCMVCGGDGSGCSKQSGSFRKFRYGYNNVVTIPAGATHILVRQQGNPGHRSIYLALKLPDGSYALNGEYTLMPSPTDVVLPGAVSLRYSGATAASETLSGHGPLAQPLTLQVLVAGNPQDTRLRYSFFVPRPTPSTPRPTPQDWLHRRAQILEILRRRPWAGRKVDYKDDDDK
Turning to B2, the aggrecanase activity entry is recorded as “The E362Q mutation abolished the aggrecanase activity of the mature protein (SEQ ID NO:50) of construct G”.

B3: furin-processed protein of construct B (truncated ADAMTS4, catalytic domain with His tag) (protein)
chain: FASLSRFVETLVVADDKMAAFHGAGLKRYLLTVMAAAAKAFKHPSIRNPVSLVVTRLVILGSGEEGPQVGPSAAQTLRSFCAWQRGLNTPEDSDPDHFDTAILFTRQDLCGVSTCDTLGMADVGTVCDPARSCAIVEDDGLQSAFTAAHELGHVFNMLHDNSKPCISLNGPLSTSRHVMAPVMAHVDPEEPWSPCSARFITDFLDNGYGHCLLDKPEHHHHHH
As for B3, the “enzymatic (aggrecanase) activity” value is “The furin-processed protein from this construct is enzymatically inactive (SEQ ID NO:46)”.

B4: furin-processed construct H (truncated ADAMTS4 active-site mutant without the spacer domain, C-terminal FLAG tag) (protein)
chain: FASLSRFVETLVVADDKMAAFHGAGLKRYLLTVMAAAAKAFKHPSIRNPVSLVVTRLVILGSGEEGPQVGPSAAQTLRSFCAWQRGLNTPEDSDPDHFDTAILFTRQDLCGVSTCDTLGMADVGTVCDPARSCAIVEDDGLQSAFTAAHQLGHVFNMLHDNSKPCISLNGPLSTSRHVMAPVMAHVDPEEPWSPCSARFITDFLDNGYGHCLLDKPEAPLHLPVTFPGKDYDADRQCQLTFGPDSRHCPQLPPPCAALWCSGHLNGHAMCQTKHSPWADGTPCGPAQACMGGRCLHMDQLQDFNIPQAGGWGPWGPWGDCSRTCGGGVQFSSRDCTRPVPRNGGKYCEGRRTRFRSCNTEDCPVDYKDDDDK
For the protein B4, the aggrecanase activity entry is “Furin-processed construct H (SEQ ID NO:51) and construct I (SEQ ID NO:52) lack aggrecanase activity”.

B5: furin-processed mature protein of construct D (protein)
chain: FASLSRFVETLVVADDKMAAFHGAGLKRYLLTVMAAAAKAFKHPSIRNPVSLVVTRLVILGSGEEGPQVGPSAAQTLRSFCAWQRGLNTPEDSDPDHFDTAILFTRQDLCGVSTCDTLGMADVGTVCDPARSCAIVEDDGLQSAFTAAHELGHVFNMLHDNSKPCISLNGPLSTSRHVMAPVMAHVDPEEPWSPCSARFITDFLDNGYGHCLLDKPEAPLHLPVTFPGKDYDADRQCQLTFGPDSRHCPQLPPPCAALWCSGHLNGHAMCQTKHSPWADGTPCGPAQACMGGRCLHMDQLQDFNIPQAGGWGPWGPWGDCSRTCGGGVQFSSRDCTRPVPRNGGKYCEGRRTRFRSCNTEDCPTGSALTFREEQCAAYNHRTDLFKSFPGPMDWVPRYTGVAPQDQCKLTCQARALGYYYVLEPRVVDGTPCSPDSSSVCVQGRCIHAGCDRIIGSKKKFDKCMVCGGDGSGCS
For B5, the aggrecanase activity entry was “The furin-processed mature proteins of construct C and D (SEQ ID NOS:47 and 48, respectively) have aggrecanase activity”.

B6: furin-processed construct I (truncated ADAMTS4 active-site mutant without the spacer and the TSP-1 domain, C-terminal FLAG tag) (protein)
chain: FASLSRFVETLVVADDKMAAFHGAGLKRYLLTVMAAAAKAFKHPSIRNPVSLVVTRLVILGSGEEGPQVGPSAAQTLRSFCAWQRGLNTPEDSDPDHFDTAILFTRQDLCGVSTCDTLGMADVGTVCDPARSCAIVEDDGLQSAFTAAHQLGHVFNMLHDNSKPCISLNGPLSTSRHVMAPVMAHVDPEEPWSPCSARFITDFLDNGYGHCLLDKPEAPLHLPVTFPGKDYDADRQCQLTFGPDSRHCPQLPPPCAALWCSGHLNGHAMCQTKHSPWADGTPCGPAQACMGGRCLHMDQLQDFNIPQAVDYKDDDDK
Take B6: the aggrecanase activity entry is “Furin-processed construct H (SEQ ID NO:51) and construct I (SEQ ID NO:52) lack aggrecanase activity”.

B7: ADAMTS4(p40), auto-digested isoform of human ADAMTS4 (protein)
chain: FASLSRFVETLVVADDKMAAFHGAGLKRYLLTVMAAAAKAFKHPSIRNPVSLVVTRLVILGSGEEGPQVGPSAAQTLRSFCAWQRGLNTPEDSDPDHFDTAILFTRQDLCGVSTCDTLGMADVGTVCDPARSCAIVEDDGLQSAFTAAHELGHVFNMLHDNSKPCISLNGPLSTSRHVMAPVMAHVDPEEPWSPCSARFITDFLDNGYGHCLLDKPEAPLHLPVTFPGKDYDADRQCQLTFGPDSRHCPQLPPPCAALWCSGHLNGHAMCQTKHSPWADGTPCGPAQACMGGRCLHMDQLQDFNIPQAGGWGPWGPWGDCSRTCGGGVQFSSRDCTRPVPRNGGKYCEGRRTRFRSCNTEDCPTGSALT
Turning to B7, the “aggrecanase activity (Western blot with MAb BC-3 for the 374ARGXX neoepitope)” value is reported as “both isoforms have aggrecanase activity”.

B8: furin-processed mature protein of construct C (protein)
chain: FASLSRFVETLVVADDKMAAFHGAGLKRYLLTVMAAAAKAFKHPSIRNPVSLVVTRLVILGSGEEGPQVGPSAAQTLRSFCAWQRGLNTPEDSDPDHFDTAILFTRQDLCGVSTCDTLGMADVGTVCDPARSCAIVEDDGLQSAFTAAHELGHVFNMLHDNSKPCISLNGPLSTSRHVMAPVMAHVDPEEPWSPCSARFITDFLDNGYGHCLLDKPEAPLHLPVTFPGKDYDADRQCQLTFGPDSRHCPQLPPPCAALWCSGHLNGHAMCQTKHSPWADGTPCGPAQACMGGRCLHMDQLQDFNIPQAGGWGPWGPWGDCSRTCGGGVQFSSRDCTRPVPRNGGKYCEGRRTRFRSCNTEDCPTGSALTFREEQCAAYNHRTDLFKSFPGPMDWVPRYTGVAPQDQCKLTCQARALGYYYVLEPRVVDGTPCSPDSSSVCVQGRCIHAGCDRIIGSKKKFDKCMVCGGDGSGCSGSAWSHPQFEK
Regarding B8, the aggrecanase activity result is “The furin-processed mature proteins of construct C and D (SEQ ID NOS:47 and 48, respectively) have aggrecanase activity”.
